Experimental data from publication PMC3095777, “Structure and Activity of a Novel Archaeal β-CASP Protein with N-Terminal KH Domains” (Structure(London, England:1993), 2011).

T1: MTH1203 (Methanothermobacter thermautotrophicus …, UniProt O27271 1-636)
T1 sequence: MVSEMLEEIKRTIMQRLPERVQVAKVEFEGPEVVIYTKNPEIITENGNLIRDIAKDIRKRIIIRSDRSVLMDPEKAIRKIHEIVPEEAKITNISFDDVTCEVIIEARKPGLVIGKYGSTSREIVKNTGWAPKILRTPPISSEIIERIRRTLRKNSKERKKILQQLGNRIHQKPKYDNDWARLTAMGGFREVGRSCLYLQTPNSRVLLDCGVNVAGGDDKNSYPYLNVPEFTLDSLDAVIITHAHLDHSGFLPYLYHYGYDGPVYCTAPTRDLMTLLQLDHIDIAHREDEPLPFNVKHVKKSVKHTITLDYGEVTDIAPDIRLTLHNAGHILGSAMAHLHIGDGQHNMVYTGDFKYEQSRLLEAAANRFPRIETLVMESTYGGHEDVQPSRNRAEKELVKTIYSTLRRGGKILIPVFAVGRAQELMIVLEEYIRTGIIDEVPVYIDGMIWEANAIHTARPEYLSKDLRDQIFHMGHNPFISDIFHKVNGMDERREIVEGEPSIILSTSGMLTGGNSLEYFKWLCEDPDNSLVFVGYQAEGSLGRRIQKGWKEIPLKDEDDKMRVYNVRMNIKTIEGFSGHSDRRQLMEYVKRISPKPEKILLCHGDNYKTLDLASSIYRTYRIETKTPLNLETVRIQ


How the values were obtained:
MTH1203 = target: T1, MTH1203; test: fluorescence anisotropy; 20 mM Tris pH 8.0, 1 M NaCl, 5 nM 5'-fluorescein RNA; temperature not stated; settings: protein: recombinant; tags: His-tag (His-tagged construct used in titrations); label: 5' fluorescein; single strand
[1] = target: the molecule itself; test: SEC-MALS; size exclusion chromatography in line with multiangle laser light scattering; MTH1203 alone; 0.5 M NaCl, or 0.7 M NaCl or KCl

Binder	binding result (MTH1203)	also measured
GGGGGGG (ssRNA) [G7]	no binding	–
UUUUUUU (ssRNA) [U7]	–	Kd (MTH1203): 9.2 µM
AAAAAAA (ssRNA) [A7]	no binding	–
CCCCCCC (ssRNA) [C7]	no binding	–
MTH1203 (enzyme, Methanothermobacter thermautotrophicus, UniProt O27271 1-636, looked up, MTH1203 from Methanothermobacter thermautotrophicus strain delta H; mth1203 gene amplified from genomic DNA, cloned into pETYSBLIC-3C; predicted molecular mass 73.1 kDa; residues up to 636 named; Dimer at 0.5-0.7 M NaCl or KCl, monomer at 1 M NaCl; full cloning and purification details are in the Supplemental Experimental Procedures; also called β-CASP metallo-β-lactamase family nuclease; source: …) MVSEMLEEIKRTIMQRLPERVQVAKVEFEGPEVVIYTKNPEIITENGNLIRDIAKDIRKRIIIRSDRSVLMDPEKAIRKIHEIVPEEAKITNISFDDVTCEVIIEARKPGLVIGKYGSTSREIVKNTGWAPKILRTPPISSEIIERIRRTLRKNSKERKKILQQLGNRIHQKPKYDNDWARLTAMGGFREVGRSCLYLQTPNSRVLLDCGVNVAGGDDKNSYPYLNVPEFTLDSLDAVIITHAHLDHSGFLPYLYHYGYDGPVYCTAPTRDLMTLLQLDHIDIAHREDEPLPFNVKHVKKSVKHTITLDYGEVTDIAPDIRLTLHNAGHILGSAMAHLHIGDGQHNMVYTGDFKYEQSRLLEAAANRFPRIETLVMESTYGGHEDVQPSRNRAEKELVKTIYSTLRRGGKILIPVFAVGRAQELMIVLEEYIRTGIIDEVPVYIDGMIWEANAIHTARPEYLSKDLRDQIFHMGHNPFISDIFHKVNGMDERREIVEGEPSIILSTSGMLTGGNSLEYFKWLCEDPDNSLVFVGYQAEGSLGRRIQKGWKEIPLKDEDDKMRVYNVRMNIKTIEGFSGHSDRRQLMEYVKRISPKPEKILLCHGDNYKTLDLASSIYRTYRIETKTPLNLETVRIQ	–	stoichiometry N [1]: 2
